# Data published in the nanobody polyreactivity screen of Harvey et al. (2022).
# Test: yeast display, Sf9 membrane polyspecificity reagent, FACS + sequencing; frameworks hold sequencing errors
# Procedure, shortened: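 A nanobody's polyreactivity label depends on the gate it was sorted from. Yeast display cells were stained with 10% biotinylated, detergent-solubilized Sf9 membrane reagent for 1 hour at 4 °C, enriched on streptavidin microbeads and sorted by FACS. The low and high (top ~1%) gates were set on anti-HA fluorescence for expression and streptavidin fluorescence for reagent binding.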
row,Sequence,polyreactivity (PSR sort gate)
1,QVQHVESGGGLVQAGGSLRLSCAASGFIFRRYVMGWYRQAPGKERELVAAISYGGGSTYYADSVKGRFTISRDNAKNTVYLQMNCLKPEDTAVYYCNAVSYNLAAYDYWGQGTQVTVSS,high polyreactivity
2,QVQHVESGGGLVQAGGSLRLSCAASGFIFRYYAMGWYRQAPGKERELVAAITWNGGSTYYADSVKGRFTISRDNAKNTVYLQLNSLKPEDTAVYYCADVPYTPSPYTYGYWGQGTQVSVSS,high polyreactivity
3,QVQHVESGGGLVQAGGSLRLSCAASGFIFSNNAMGRYRQAPGKERELVAAITSSGGRTYYADSVKGRFTISRDNAKNTVYLQMNSLKPEDTAVYYCAAVWRTSVWTKYGYWGQGTQVTVSS,high polyreactivity
4,QVQHVESGGGLVQAGGSLRLSCAASGFIFVRNTMGWYRQAPGKERELVATITRRGGSTSYADSVKGRFTISRDNAKNTVYLQMNSLKPEDTAVYFCNARSVYGSKQEEYWGQGTQVTVSS,high polyreactivity
5,QVQHVESGGGLVQAGGSLRLSCAASGFIIQGNAMGWYRQAPGKERELVAAISSSVSTYYADSVKGRFTISRDNAKNTVYLQMNSLKPEDTAVYYCNAGFPLSLWLGDYWGQGTQVTVSS,low polyreactivity
6,QVQHVESGGGLVQAGGSLRLSCAASGFTFGSYAMGWYRQAPGKERELVARISSDGSTNYADSVKGRFTISRDNPKNTVYLQMNSLKPEDTAVYYCAADRVVEYADYYYWGQGTQVTVSS,low polyreactivity
7,QVQHVESGGGLVQAGGSLRLSCAASGFTFNLYAMGWYRQAPGKERELVAAINWSGGTYYADSVKGRFTISRDNAKNTVYLQMNSLKPEYTAVYYCAADFPYTPWSYHHHVWSPDFDYWGQGTQVTVSS,low polyreactivity
8,QVQHVESGGGLVQAGGSLRLSCAASGFTFQSYPMGWYRQAPGKERELVAAITRRGTRTYYADSVKGRFTISRDNAKNTVYLQLNSLKPEDTAVYYCAARSPKLEFDYWGQGTQVTVSS,high polyreactivity
9,QVQHVESGGGLVQAGGSLRLSCAASGFTFWRYAMGWYRQEPGKERELVAGISSGGSTNYADSVKGRFTISRDNAKNTVYLQMNSLKPEDTAVYYCAADNSVGSYDYWGQGSQVTVSS,low polyreactivity
10,QVQHVESGGGLVQAGGSLRLSCAASGFTSIMYAMGWYRQAPGKERDLVASISISDGSTYYADSVKGRFTISRDNAKNTVYLQMNILKPEDTAVYYCAADVYVWYTYSYDYWGQGTKVTVSS,low polyreactivity
11,QVQHVESGGGLVQAGGSLRLSCAASGIIFFKNAMGWYRQAPGKERELVAAISSTDTRTYYADSVKGRFTISRDNAKNTVYLQMNSLKPEDTAVYYCAASRRGGGLDYWGQGTQVTVSS,high polyreactivity
12,QVQHVESGGGLVQAGGSLRLSCAASGIIFKLYAMGWYRQAPGKEREFVATITKTGGRTYYADSVKGRFTISRDNAKNTVYLQMNSLKPEDTAVYYCAARRVNGKMYYWGQGTQVTVSS,high polyreactivity
13,QVQHVESGGGLVQAGGSLRLSCAASGIIFYSYTMGWYRQAPGKDRELVAAISRNGGGTYYADSVKGRFTSSRDIAKNTGYLQMNSLKPEHTAVYYCAAGWRFGRYSGDYWGQGTQVTVSS,high polyreactivity
14,QVQHVESGGGLVQAGGSLRLSCAASGIILGSYAMGWYRQAPGKEMELVAAIRWSRGRTYYADSVKGRFTISRDNAKNTVYLQMNSLKPEDSAVYYCAAANSRRGYDYWGQGTQVTVSS,high polyreactivity
15,QVQHVESGGGLVQAGGSLRLSCAASGITFGRNTMGWYRQAPGKERELVAAIDSGGNTYADSVKGRFTISRDNAKITVYLQMIRQKPEDTAVDSCAVDGGEFSSYGYWGQGTQVTVSS,low polyreactivity
16,QVQHVESGGGLVQAGGSLRLSCAASGITFKPNAMGWSRHAPGKERELVAAIDSGGSTNYAYSVKGRFTISLDNAKNTVYLQMNSLKPEDTAVYYCAAPYQDRDLQVSYSTYEGGYWGQGTQVTVSS,low polyreactivity
17,QVQHVESGGGLVQAGGSLRLSCAASGITFVLNSMGWSRPAPGKERELVAAIDTSGADTYYADSVKGRFTISRDNAKNTVYLQMNSLKPEDTAVYYCAAETITDDSYEYDYWGQGTQVTVSS,low polyreactivity
18,QVQHVESGGGLVQAGGSLRLSCAASGITFVPNAMGWYRQAHGKERELVAAITSGDSTNYADSVKGRFTISRDNAKNTVYLQMNSLKPEDTAVYYCAADSWAQRPNQGRVSLHYYWGQGTLVTVSS,low polyreactivity
19,QVQHVESGGGLVQAGGSLRLSCAASGLIFPRYAMGLYRQAPGKERELVAAINWRGGITYYADSVKGRFTISRDNAKNTVYLQMNSLKPEDTAVYYCAAAVKHVAYHYNYWGQGTQVTVSS,high polyreactivity
20,QVQHVESGGGLVQAGGSLRLSCAASGLIFVRYAMGWYRQAPGKERELVATITWSGGTTYADSVKGRFTISRDNAKNTVYLQMNSLKPEDTAVYYCAVEWPAWTDSDYPVGGHAFGYWGQGTQVTVSS,low polyreactivity
21,QVQHVESGGGLVQAGGSLRLSCAASGLNLYSNAMGCYRQAPGNERELVAAISWIGASTYYADSVKGRFTISRDNAKNTVYLQMNSLKQEDTAVYYCATARYRGYPTYSYARDYCGQGTQVTVSS,high polyreactivity
22,QVQHVESGGGLVQAGGSLRLSCAASGNIFVAYAMGGYRQAPGKERELVAAITSGGRTYADSVKGRFTISRDNAKNTVYLQMNSLKPEDTAVYYCNADPYYVYLGYYDRYYSGYGYWGQGTQVTVSS,low polyreactivity

row,Sequence,polyreactivity (PSR sort gate)
1,QVQHVESGGGLVQAGGSLRLSCAASGNSFRYYTMGWYRQAPGKEREFVAAISWSGGRTRYADSVKGRFTISRDNAMITVYLQMNSLKPEDTAVYYCAAYTPSYGGRDYWGQGTQVTVSS,low polyreactivity
2,QVQHVESGGGLVQAGGSLRLSCAASGPTYKRYAMGWYRQAPGKERELVAAIRQRGGSTYYADSVKGRFTISRDNAKNTVYLQMISLKPEDTAVYYWAKRYVSNSQYEYWGQGTQVTVSS,high polyreactivity
3,QVQHVESGGGLVQAGGSLRLSCAASGRIFGGNAMGWYRQAPGKERELVAAISIGGGSTNYADSVKGRFTISRDNAKNTFYLQMNSLKPEDTAVYYCAARTRYTSVGKLYSWGQGTQVTVSS,high polyreactivity
4,QVQHVESGGGLVQAGGSLRLSCAASGRIFHWYAMGWYRQAPGKERELVAAIRWTGGSTYYADSVKGRFTISRDNAKNTVYLEMNSLKPEDTAVYYCAAKGYTGIFYEMDYWGQGTQVTVSS,low polyreactivity
5,QVQHVESGGGLVQAGGSLRLSCAASGRIFRGYAMGWYRQAPGKERELVAVISYSGTRTYYADSVKGRFTISRDNAKNTVYLQMNSLKPEDTAVYYCNARANGFKDGYWGQGTQVTVSS,high polyreactivity
6,QVQHVESGGGLVQAGGSLRLSCAASGRIFVPYTMGWYRQAPGKERELVAAISRSGGSTYYADSVKGRFTISRDNAKNPVYLQMNSLKPEDTAVYYCAARATNVYSKMDYWGQGTQVTVSS,high polyreactivity
7,QVQHVESGGGLVQAGGSLRLSCAASGRIFYRNAMGWYRQAPGKERELVASITSAGRTYYADSVKGRFTISRDNAKNTVYLQMNSLKPEDTAVYYCAVRVAVLLNLYGYWGQGTQVTVSS,low polyreactivity
8,QVQHVESGGGLVQAGGSLRLSCAASGRTFEVFAMGWYRQAPRKERELVATITYSGGITYYADSVKGRFTISRDKAKNTVYLQMNSLKPEDTAVYYPIGVGGDYDYCGQGTQVTVSS,low polyreactivity
9,QVQHVESGGGLVQAGGSLRLSCAASGRTFKYYAMGWYRQAPGKERELVAAISSRGGSTYYADSVKGRFTISRDNAKNTVYLQMNSLKPEDTAVYYCAKGTYLSTSTVANDYWGQGTQVTVSS,high polyreactivity
10,QVQHVESGGGLVQAGGSLRLSCAASGRTFQLYDMGWYRQPHGKDRELVAGITITGGSTYYADSVKGRFTISRDIAKNTVYIQMISLKPEDTAVYYCAARKARPPFPHPFDYYWGQGTQVTVSS,low polyreactivity
11,QVQHVESGGGLVQAGGSLRLSCAASGRTFSRYAMGWYRQAPGKERELVAAISSRGGSTYYADSVKGRFTISRDYAKNTVYLQMNSLKPEDTAVYYCNADSKVDQYGYDYWGQGTQVTVSS,high polyreactivity
12,QVQHVESGGGLVQAGGSLRLSCAASGRTFWTNALGWYRQAPGKEREFVGAISWRGASTFYADSVKGRFTISRDHAKNTVYLQMTSLKPEDTAVYDCAAQSRTRSFYGKFDSWGQGTQVTVSS,low polyreactivity
13,QVQHVESGGGLVQAGGSLRLSCAASGRTFYRYAMGWSRQAPGKERELVASINRGGSTNYADSVKGRFTISRDNAKNTVYLQMNSLKPEDTAVYYCNADGYQAASRVYRRPKRYYSWGQGTQVTVSS,low polyreactivity
14,QVQHVESGGGLVQAGGSLRLSCAASGRTSKKYVMGWYRQAPGKERELVATLNWSGGSTYYADSVKGRFTISRDNAKNTVYLQMNSLKPEDTAVYYCAARSEFYWGWEYITYDYWGQGTQVTVSS,low polyreactivity
15,QVQHVESGGGLVQAGGSLRLSCAASGRTSNIYAMGWYRQAPGKERELVAAIRTGGSTNYADSVKGRFTISRDNAKNTVYLQMNSLKPEDTAVYYCAATSRRSRPAEEYWGQGTQVTVSS,high polyreactivity
16,QVQHVESGGGLVQAGGSLRLSCAASGRTSYGNTMGWYRQAPGKERELVATISGGGSTNYADSVKGRFTISRDNAKNTVYLQMNSLKPDDTAVYYCAARRYPFPGYRYYYWGQGTQVTVSS,high polyreactivity
17,QVQHVESGGGLVQAGGSLRLSCAASGRTYRYNAMGWYRQAPGKETELVAAITGGGSTNYADSVKGRFTISRDNAKYTVYLQMNSLKPEDTAVYYCATGGFKYWWLYPYDYWGQGTQVTVSS,low polyreactivity
18,QVQHVESGGGLVQAGGSLRLSCAASGSIFRRYTMGWYRQAPGKERELVAAISRVGNTNYADSVKGRFTISRDNAKNTVYLQMNSLKPEDTAVYYCAARAIGYRYTPGLNYWGQGTQVTVSS,high polyreactivity
19,QVQHVESGGGLVQAGGSLRLSCAASGSIFVFYAMGWYRQAHGKEREFVASITSSGGSTYYADSVKGRFTISRDNAKNTVYLQMNSLKPEDTAVYYCAARKYRNPYYYRYYYWGQGTQVTVSS,high polyreactivity
20,QVQHVESGGGLVQAGGSLRLSCAASGSIIRGNCMGWYRQAPGKERELVAAISRSGGRTYYADSVKGRFTFSRDNAKNTVYLQMNSLKPEDTAVYYFAKDRSGSYYNFPEYDYWGQGTQVTVSS,high polyreactivity
21,QVQHVESGGGLVQAGGSLRLSCAASGSNVVSNAMGWYRHATGKEREFVATISSGGGTTYADSVKGRFTISRDNAKITVYLQMNSLKAEDTAVYYCAAGHFVGREWVKFDYWGQGTQVTVSS,low polyreactivity
